Assay results published in publication PMC10204903 (Cell, 2022).

B1: mAb 9.20.1C3 (antibody, V domains shown)
VH: QVQLVQSGAEVKKPGSSVKVACKVSGGTFSSYTISWVRQAPGQGLEWMGGIIPSFGVGHYSQKFRDRVTLTADKSTTTAFLELSSVRSEDTALYYCAILGTFNWKSGGNYFGPWGQGTLVTVSS
VL: DIVLTQSPDSLAASLGERATISCKSSHSVLYSSNNKDFFAWYQQKPGQPPKLLISWASTRESGVPVRFNGGGSGTHFTLTISSLQAEDVAVYYCQQYFSSPITFGQGTRLEIK
B2: mAb 5.24.1C11 (antibody, V domains shown)
VH: QVQLVQSGAEVKKPGASVKVSCRTSGYTFSSYNIHWVRQAPGQGLEWMGVINPYGRSTTLYARRFRDRVTMTRDTSTSTVYMELSSLRSEDTAVYFCGRLYSGAPYGLDVWGQGSTVTVSS
VL: DIVMTQSPLSLPVTPGEPASISCRSSQSLLHSNGYNYVDWYLQKPGQSPQLLIYLGSSRASGVPDRFSGSGSGTDFTLKISRVETEDVGIYYCMQGLQTPLTFGGGTKVEIK

Experiments:
Assay in all cases: ELISA
[1] = target: BDBV GP ectodomain (Bundibugyo virus; strain of the bought …, UniProt B8XCN0)
[2] = target: EBOV soluble glycoprotein (sGP) (Ebola virus (EBOV), UniProt P60170)
[3] = target: SUDV GP ectodomain (Sudan virus (SUDV), UniProt Q7T9D9)

Binder | binding result [1] | binding result [2] | binding result [3]
B1 | binds | no binding | binds
B2 | binds | no binding | binds
